{
  "source": "IntAct's records for PubMed 18049475",
  "key": {"[1]": {"target": "gck3_caeel gck-3 (UniProt G5EEN4)", "sequence (G5EEN4 whole entry)": "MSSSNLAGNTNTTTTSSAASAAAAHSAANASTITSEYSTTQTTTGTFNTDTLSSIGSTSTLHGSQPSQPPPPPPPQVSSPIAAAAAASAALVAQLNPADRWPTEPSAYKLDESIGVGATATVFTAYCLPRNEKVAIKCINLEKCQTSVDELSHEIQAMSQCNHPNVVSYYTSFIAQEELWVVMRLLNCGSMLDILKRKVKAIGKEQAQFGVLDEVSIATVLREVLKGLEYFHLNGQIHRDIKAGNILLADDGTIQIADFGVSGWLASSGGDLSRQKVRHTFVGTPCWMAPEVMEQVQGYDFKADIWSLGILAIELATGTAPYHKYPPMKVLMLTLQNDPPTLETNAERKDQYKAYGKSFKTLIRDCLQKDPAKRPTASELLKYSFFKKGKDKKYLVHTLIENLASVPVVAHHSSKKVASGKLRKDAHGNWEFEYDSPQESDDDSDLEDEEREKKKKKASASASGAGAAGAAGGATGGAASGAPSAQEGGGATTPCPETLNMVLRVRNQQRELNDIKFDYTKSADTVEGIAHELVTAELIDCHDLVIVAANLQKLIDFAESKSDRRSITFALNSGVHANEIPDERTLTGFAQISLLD"}, "[2]": {"target": "gck3_caeel gck-3 (UniProt G5EEN4)", "remark": "listed apart in the source"}, "[3]": {"target": "gck3_caeel gck-3 (UniProt G5EEN4)", "remark": "listed apart in the source"}},
  "data": [
    {"substance": "Serine/threonine-protein kinase WNK (Caenorhabditis elegans), X5M5N0 F1133A", "values": [
      {"measurement": "effect of a mutation on the interaction", "setting": "[1]", "result": "decreasing interaction"}
    ]},
    {"substance": "Serine/threonine-protein kinase WNK (Caenorhabditis elegans), X5M5N0 F1133A;F1222A", "values": [
      {"measurement": "effect of a mutation on the interaction", "setting": "[2]", "result": "disrupting interaction"}
    ]},
    {"substance": "Serine/threonine-protein kinase WNK (Caenorhabditis elegans), X5M5N0 F1222A", "values": [
      {"measurement": "effect of a mutation on the interaction", "setting": "[3]", "result": "decreasing interaction"}
    ]}
  ]
}
